In IntAct's records for PubMed 36127429:

B1: Protein SHMOOSE (Homo sapiens), C0HM83 (parent)
chain: MPPCLTTWLSQLLKDNSYPLVLGPKNFGATPNKSNNHAHYYNHPNPDFPNSPHPYHPR
partner: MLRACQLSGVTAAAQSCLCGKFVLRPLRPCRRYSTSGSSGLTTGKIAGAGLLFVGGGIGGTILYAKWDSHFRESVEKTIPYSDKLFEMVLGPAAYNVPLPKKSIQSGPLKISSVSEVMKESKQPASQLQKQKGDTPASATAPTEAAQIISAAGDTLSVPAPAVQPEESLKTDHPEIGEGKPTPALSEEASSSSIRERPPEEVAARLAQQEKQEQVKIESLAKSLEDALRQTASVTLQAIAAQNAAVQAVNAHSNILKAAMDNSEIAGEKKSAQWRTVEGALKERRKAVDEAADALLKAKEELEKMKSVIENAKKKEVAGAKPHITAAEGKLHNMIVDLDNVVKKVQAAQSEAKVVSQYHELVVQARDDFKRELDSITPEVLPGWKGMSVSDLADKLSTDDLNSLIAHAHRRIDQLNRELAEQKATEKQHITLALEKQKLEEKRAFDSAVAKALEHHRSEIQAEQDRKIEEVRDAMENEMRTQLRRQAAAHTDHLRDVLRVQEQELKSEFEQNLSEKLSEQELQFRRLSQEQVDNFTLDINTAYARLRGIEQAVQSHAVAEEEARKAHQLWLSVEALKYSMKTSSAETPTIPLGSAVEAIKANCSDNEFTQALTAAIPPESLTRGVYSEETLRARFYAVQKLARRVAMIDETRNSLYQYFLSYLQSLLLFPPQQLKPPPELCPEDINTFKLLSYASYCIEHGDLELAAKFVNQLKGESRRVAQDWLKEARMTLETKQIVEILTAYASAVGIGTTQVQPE

Variants of: B1
Details: with mic60_human IMMT

effect of a mutation on the interaction	Variant
with no effect	MPPCLTTWLSQLLKDNSYPLVLGPKNFGATPNKSNNHAHYYNHPNPNFPNSPHPYHPR [D47N]
